Laboratory results as given in patent publication US11692007B2, “Amino deprotection using 3-(diethylamino)propylamine” (priority 2021, dated 2023).
Like-named read-outs stand apart in the source and are kept apart here. Marks after values point to notes of the source that are not given here. Non-standard residues stand in square brackets, D forms with d. Residues, ends and D or L forms follow the SMILES beside them. *: point of attachment. dPhe(4-NHCONH2) = NC(=O)Nc1ccc(C[C@@H](N)C(=O)O)cc1; Dihydroorotyl(S) = O=C1C[C@@H](C(=O)*)NC(=O)N1; dPhe(4-Cl) = N[C@H](Cc1ccc(Cl)cc1)C(=O)O; Phe(4-NH2) = Nc1ccc(C[C@H](N)C(=O)O)cc1; d2Nal = N[C@H](Cc1ccc2ccccc2c1)C(=O)O; Lys(iPr) = CC(C)NCCCC[C@H](N)C(=O)O; d3Pal = N[C@H](Cc1cccnc1)C(=O)O

Legend:
[1] = system: rat; settings: in vivo; cited from earlier work
[2] = for Hydantoin impurity (VI) at RRT 1.03 / purity (HPLC) / specified impurity RRT 0.85 (X, unknown): RT; for Hydantoin impurity (VI) at RRT 1.03: at both t0 and t3 (24 h); for specified impurity RRT 0.85 (X, unknown): not present at t0
Method: Degarelix was kept in a solution of 10% DEAPA in DMF for 24 h to simulate conditions corresponding to those used for removal of Fmoc group during full SPPS. Samples were analyzed by HPLC at four checkpoints up to 24 h and the four HPLC profiles obtained were compared as shown in FIG. 3 and FIG. 4 (for detailed experimental procedure, see Example 7).
Example 7: HPLC analyses were performed on Agilent 1260 Infinity II system, using columns Waters Cortecs C18 2.7 μm, 4.6×150 mm; temperature: 30° C.; injection volume: 10 μL, UV: 245 nm; pH 5.5 Phosphate Buffer: 25 mM Potassium Phosphate to pH 5.5; pH 3.5 Phosphate Buffer: 25 mM Potassium Phosphate to pH 3.5; mobile phases: 75% pH 5.5 Buffer: 25% CH3CN (A); 65% pH 3.5 Buffer: 35% CH3CN (B); flow: 1.0 mL/min, sample concentration 0.5 mg/ml; gradient: 0-5 min 0% B, 5-45 min […], 45-46 min 100-0% B, 46-60 min 0% B.
The stability at RT was followed for 24 h at four check points, i.e. t0, 1 h (t1), 4 h (t2) and 24 h (t3).
Superimposed HPLC profiles are shown in FIG. 3 (Test 1) and FIG. 4 (Test 2).

[3] = Method: A sample of Degarelix, as a lyophilized powder of about 99% of purity, was dissolved at a concentration of 17 g/L in DMF with 10% of piperidine, TMG, TBA or DEAPA. The stability at RT was measured by HPLC at t=0 (t0), t=8 hr (t1), and t=24 hr (t3) using an Agilent 1260 Infinity II system, using a column Waters Xterra Shield RP18, 3.5 μm, 4.6×150 mm; temperature: 25° C.; sample concentration 0.5 mg/mL; injection volume: 10 μL; flow: 0.7 mL/min; buffer: 65% 40 mM ammonium acetate, pH 10:35% ACN; elution: isocratic, 0-30 min 100% buffer; detection: UV 245 nm.
[4] = system: mice; settings: acute oral toxicity; cited from earlier work
[5] = system: rabbits; settings: acute oral toxicity; cited from earlier work
[6] = system: rats; settings: acute oral toxicity; cited from earlier work
[7] = Stress stability test of resin-bound H-Ala-Lys-Asp-Gly-Tyr-Ile-OH with piperidine, DEAPA, TMG and TBA in DMF or NBP (aspartimide formation, HPLC); type: physicochemical
Method: A stress test was then performed whereby the model peptide was submitted to basic conditions to simulate repeated alpha-amino deprotection cycles. Resin-bound H-Ala-Lys-Asp-Gly-Tyr-Ile-OH (still bearing side-chain protections) was treated in parallel with 20% piperidine, 10% DEAPA, 5% TMG or 20% TBA solutions, in DMF or NBP, for 4 h at RT.
As shown in Scheme 2 above, the formation of the aspartimide side-product may be followed by nucleophilic attack onto the aspartimide ring with formation of further by-products, like amine-adducts (amine-mediated ring-opening) and alpha- and beta-peptides (water-mediated ring-opening).
The hexapeptide samples obtained after such treatments with the Fmoc cleavage solutions were analyzed by HPLC and the results are shown in Table 1 (for detailed experimental procedure, see Example 6).
In Table 1, Δ Asp indicates the amount of additional overall aspartimide impurities (comprising piperidides by-products) resulting from the stress test relative to the initial aspartimide amount (2.6%).
Examples 1-6: HPLC-MS analyses were performed on Agilent 1260 Infinity II system coupled to an electrospray ionization mass spectrometer (positive-ion mode, m/z=100-1500, fragmentor 30 V), using columns Agilent Zorbax-SB-C18 5 μm, 250×4.6 mm or Phenomenex Luna C18 5 μm, 250×4.6 mm; temperature: 25° C.; injection volume: 10 μL, UV: 220 nm, mobile phases: H2O+0.08% TFA (A) and CH3CN+0.08% TFA (B), flow: 0.5 mL/min or 1.0 mL/min.
100 mg of dry resin H-Ala-Lys-Asp-Gly-Tyr-Ile-Trt-PS (prepared as described in Example 2) were swelled in 2 mL of DMF or NBP for 30 minutes. The resin was filtered and a 2 mL solution of 10% DEAPA (or 20% piperidine, 5% TMG, 20% TBA) in DMF or NBP was added to the resin and stirred for 4 hours at RT. The resin was filtered, washed with DMF or NBP (3×2 mL) and with DCM (3×2 mL). Dry peptide resin was suspended in 3 mL of the mixture TFA/TIS/H2O (90/5/5 v/v/v) and stirred for 2 h. The resin was filtered off and diisopropylether (10 mL) cooled to 4° C. was added to the solution. The peptide was filtered and dried in vacuo to obtain crude H-Ala-Lys-Asp-Gly-Tyr-Ile-OH (II) and aspartimide impurity (III) in different ratios according to the used conditions.
Table 1 in the description lists the results. ΔAsp indicates the difference between the aspartimide amount formed after stress tests (including piperidides if present) and that arising from the hexapeptide synthesis (2.6%, see Example 2).
HPLC-MS analysis gradient: 0-30 min 10-40% B; flow: 0.5 mL/min.

[8] = Test 1, about 170 g/L in DMF with 10% DEAPA, t3 (24 h)
[9] = Test 2, about 17 g/L in DMF with 10% DEAPA, t3 (24 h)
[10] = 24 hr at RT, 10% DEAPA in DMF, 17 g/L
[11] = 24 hr at RT, 10% TBA in DMF, 17 g/L
[12] = 24 hr at RT, 10% TMG in DMF, 17 g/L
[13] = 24 hr at RT, 10% piperidine in DMF, 17 g/L
[14] = duration 0, base solution none, 17 g/L in DMF
[15] = 10% DEAPA in DMF, 4 h at RT, resin-bound
[16] = 10% DEAPA in NBP, 4 h at RT, resin-bound
[17] = 20% TBA in DMF, 4 h at RT, resin-bound
[18] = 20% TBA in NBP, 4 h at RT, resin-bound
[19] = 20% piperidine in DMF, 4 h at RT, resin-bound
[20] = 20% piperidine in NBP, 4 h at RT, resin-bound
[21] = starting point, after synthesis in DMF with 20% pip, before stress test

CCN(CC)CCCN [DEAPA, 3-(diethylamino)propylamine]
LD50 [1]: 830 mg/kg

CC(=O)N[C@H](Cc1ccc2ccccc2c1)C(=O)N[C@H](Cc1ccc(Cl)cc1)C(=O)N[C@H](Cc1cccnc1)C(=O)N[C@@H](CO)C(=O)N[C@@H](Cc1ccc(NC(=O)[C@@H]2CC(=O)NC(=O)N2)cc1)C(=O)N[C@H](Cc1ccc(NC(N)=O)cc1)C(=O)N[C@@H](CC(C)C)C(=O)N[C@@H](CCCCNC(C)C)C(=O)N1CCC[C@H]1C(=O)N[C@H](C)C(N)=O [Degarelix, Ac-D-Nal-D-Cpa-D-Pal-Ser-Aph(Hor)-D-Aph(Cbm)-Leu-Lys(iPr)-Pro-D-Ala-NH2] (Ac-[d2Nal][dPhe(4-Cl)][d3Pal]S[Phe(4-NH2)](Dihydroorotyl(S))[dPhe(4-NHCONH2)]L[Lys(iPr)]P[dA]-NH2)
degradation of degarelix ([2]; 10% DEAPA in DMF, up to 24 h): No significant degradation
increase of hydantoin impurity ([2]; 10% DEAPA in DMF, up to 24 h): no increase
Hydantoin impurity (VI) at RRT 1.03 ([2]; Test 1, about 170 g/L in DMF with 10% DEAPA): 0.10%
purity (HPLC) ([2]; Test 1, about 170 g/L in DMF with 10% DEAPA, t0): 99.17%
purity (HPLC) [2, 8]: 99.10%
specified impurity RRT 0.85 (X, unknown) [2, 8]: 0.06%
Hydantoin impurity (VI) at RRT 1.03 ([2]; Test 2, about 17 g/L in DMF with 10% DEAPA): 0.09%
purity (HPLC) ([2]; Test 2, about 17 g/L in DMF with 10% DEAPA, t0): 99.18%
purity (HPLC) [2, 9]: 99.10%
specified impurity RRT 0.85 (X, unknown) [2, 9]: 0.04%
Degarelix % [3, 10]: 99.97%
Hydantoin VI % [3, 10]: 0.03%
Degarelix % [3, 11]: 99.96%
Hydantoin VI % [3, 11]: 0.04%
Degarelix % [3, 12]: 98.7%
Hydantoin VI % [3, 12]: 1.3%
Degarelix % [3, 13]: 99.96%
Hydantoin VI % [3, 13]: 0.04%
amount of hydantoin impurity (VI) ([3]; after 24-hours treatment with DEAPA (10% in DMF)): unchanged
Degarelix % [3, 14]: 99.97%
Hydantoin VI % [3, 14]: 0.03%

C1CCNCC1 [piperidine]
LD50 [4]: 30 mg/kg
LD50 [5]: 145 mg/kg
LD50 [6]: 400 mg/kg

H-Ala-Lys-Asp-Gly-Tyr-Ile-OH (H-AKDGYI-OH) [III]
Aspartimide (IV) (A %) ([7]; 5% TMG in DMF, 4 h at RT, resin-bound): 85.5 A %
III (A %) ([7]; 5% TMG in DMF, 4 h at RT, resin-bound, sum of alpha- and beta-peptide): 14.5^a A %
Δ Asp (A %) ([7]; 5% TMG in DMF, 4 h at RT, relative to initial 2.6%): 82.9 A %
Aspartimide (IV) (A %) ([7]; 5% TMG in NBP, 4 h at RT, resin-bound): 72.9 A %
III (A %) ([7]; 5% TMG in NBP, 4 h at RT, resin-bound, sum of alpha- and beta-peptide): 27.1^a A %
Δ Asp (A %) ([7]; 5% TMG in NBP, 4 h at RT, relative to initial 2.6%): 70.3 A %
Aspartimide (IV) (A %) [7, 15]: 10.1 A %
III (A %) [7, 15]: 89.9 A %
Δ Asp (A %) ([7]; 10% DEAPA in DMF, 4 h at RT, relative to initial 2.6%): 7.5 A %
Aspartimide (IV) (A %) [7, 16]: 4.2 A %
III (A %) [7, 16]: 95.8 A %
Δ Asp (A %) ([7]; 10% DEAPA in NBP, 4 h at RT, relative to initial 2.6%): 1.6 A %
Aspartimide (IV) (A %) [7, 17]: 29.3 A %
III (A %) [7, 17]: 70.7 A %
Δ Asp (A %) ([7]; 20% TBA in DMF, 4 h at RT, relative to initial 2.6%): 26.7 A %
Aspartimide (IV) (A %) [7, 18]: 20.0 A %
III (A %) [7, 18]: 80.0 A %
Δ Asp (A %) ([7]; 20% TBA in NBP, 4 h at RT, relative to initial 2.6%): 17.4 A %
Aspartimide (IV) (A %) [7, 19]: 7.2 A %
III (A %) [7, 19]: 86.5 A %
Piperidides (V) (A %) [7, 19]: 6.3 A %
Δ Asp (A %) ([7]; 20% piperidine in DMF, 4 h at RT, additional aspartimide impurities incl. piperidides relative to initial 2.6%): 10.9 A %
Aspartimide (IV) (A %) [7, 20]: 7.1 A %
III (A %) [7, 20]: 90.0 A %
Piperidides (V) (A %) [7, 20]: 2.9 A %
Δ Asp (A %) ([7]; 20% piperidine in NBP, 4 h at RT, incl. piperidides, relative to initial 2.6%): 7.4 A %
Aspartimide (IV) (A %) [7, 21]: 2.6 A %
III (A %) [7, 21]: 97.4 A %
